Reference: IntAct's records for PubMed 24389026

B1: Ubiquitin-conjugating enzyme E2 T (Homo sapiens), Q9NPD8 (parent)
chain: MQRASRLKRELHMLATEPPPGITCWQDKDQMDDLRAQILGGANTPYEKGVFKLEVIIPERYPFEPPQIRFLTPIYHPNIDSAGRICLDVLKLPPKGAWRPSLNIATVLTSIQLLMSEPNPDDPLMADISSEFKYNKPAFLKNARQWTEKHARQKQKADEEEMLDNLPEAGDSRVHNSTQKRKASQLVGIEKKFHPDV
partner: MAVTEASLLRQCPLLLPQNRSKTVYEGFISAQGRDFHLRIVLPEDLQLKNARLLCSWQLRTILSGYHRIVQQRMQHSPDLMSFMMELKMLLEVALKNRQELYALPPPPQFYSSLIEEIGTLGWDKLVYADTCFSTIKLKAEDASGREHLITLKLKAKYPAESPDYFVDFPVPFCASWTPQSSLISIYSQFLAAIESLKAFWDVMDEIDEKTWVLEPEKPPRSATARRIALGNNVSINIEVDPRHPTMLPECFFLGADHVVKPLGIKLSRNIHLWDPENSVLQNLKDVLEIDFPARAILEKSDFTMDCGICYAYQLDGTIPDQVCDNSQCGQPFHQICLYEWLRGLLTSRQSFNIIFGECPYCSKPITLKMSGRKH
B2: E3 ubiquitin-protein ligase FANCL (Homo sapiens), Q9NW38-1 (parent)
chain: B1 partner

Variants of: B1
Settings: with FANCL

effect of a mutation on the interaction | Variant
disrupting interaction strength | MQRASRLKRELHMLATEPPPGITCWQDKDQMDDLRAQILGGANTPYEKGVFKLEVIIPEEYPFEPPQIRFLTPIYHPNIDSAGRICLDVLKLPPKGAWRPSLNIATVLTSIQLLMSEPNPDDPLMADISSEFKYNKPAFLKNARQWTEKHARQKQKADEEEMLDNLPEAGDSRVHNSTQKRKASQLVGIEKKFHPDV [R60E]

Variants of: B2
Settings: with ube2t_human UBE2T

effect of a mutation on the interaction | Variant
disrupting interaction strength | MAVTEASLLRQCPLLLPQNRSKTVYEGFISAQGRDFHLRIVLPEDLQLKNARLLCSWQLRTILSGYHRIVQQRMQHSPDLMSFMMELKMLLEVALKNRQELYALPPPPQFYSSLIEEIGTLGWDKLVYADTCFSTIKLKAEDASGREHLITLKLKAKYPAESPDYFVDFPVPFCASWTPQSSLISIYSQFLAAIESLKAFWDVMDEIDEKTWVLEPEKPPRSATARRIALGNNVSINIEVDPRHPTMLPECFFLGADHVVKPLGIKLSRNIHLWDPENSVLQNLKDVLEIDFPARAILEKSDFTMDCGACYAYQLDGTIPDQVCDNSQCGQPFHQICLYEWLRGLLTSRQSFNIIFGECPYCSKPITLKMSGRKH [I309A]
disrupting interaction strength | MAVTEASLLRQCPLLLPQNRSKTVYEGFISAQGRDFHLRIVLPEDLQLKNARLLCSWQLRTILSGYHRIVQQRMQHSPDLMSFMMELKMLLEVALKNRQELYALPPPPQFYSSLIEEIGTLGWDKLVYADTCFSTIKLKAEDASGREHLITLKLKAKYPAESPDYFVDFPVPFCASWTPQSSLISIYSQFLAAIESLKAFWDVMDEIDEKTWVLEPEKPPRSATARRIALGNNVSINIEVDPRHPTMLPECFFLGADHVVKPLGIKLSRNIHLWDPENSVLQNLKDVLEIDFPARAILEKSDFTMDCGICYAYQLDGTIPDQVCDNSQCGQPFHQICLYEALRGLLTSRQSFNIIFGECPYCSKPITLKMSGRKH [W341A]
disrupting interaction strength | MAVTEASLLRQCPLLLPQNRSKTVYEGFISAQGRDFHLRIVLPEDLQLKNARLLCSWQLRTILSGYHRIVQQRMQHSPDLMSFMMELKMLLEVALKNRQELYALPPPPQFYSSLIEEIGTLGWDKLVYADTCFSTIKLKAEDASGREHLITLKLKAKYPAESPDYFVDFPVPFCASWTPQSSLISIYSQFLAAIESLKAFWDVMDEIDEKTWVLEPEKPPRSATARRIALGNNVSINIEVDPRHPTMLPECFFLGADHVVKPLGIKLSRNIHLWDPENSVLQNLKDVLEIDFPARAILEKSDFTMDCGICAAYQLDGTIPDQVCDNSQCGQPFHQICLYEWLRGLLTSRQSFNIIFGECPYCSKPITLKMSGRKH [Y311A]
